Experimental data as given in patent US20100143940A1, “(3R)-HYDROXYACYL-ACP DEHYDRATASE ENZYMES USED IN THE BIOSYNTHESIS OF MYCOLIC ACIDS AND USE OF SAME FOR SCREENING ANTIBIOTICS” (priority 2007, published 2010).

Target: T1, 2-trans-octenoyl-ACP, P0A6A8
T1 chain: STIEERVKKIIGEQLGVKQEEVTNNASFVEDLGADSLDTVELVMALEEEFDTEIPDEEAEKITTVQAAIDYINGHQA

B1: Rv0636 protein of M. tuberculosis H37Rv fused with the N-terminal polyhistidine tag (protein)
chain: HHHHHHMALREFSSVKVGDQLPEKTYPLTRQDLVNYAGVSGDLNPIHWDDEIAKVVGLDTAIAHGMLTMGIGGGYVTSWVGDPGAVTEYNVRFTAVVPVPNDGKGAELVFNGRVKSVDPESKSVTIALTATTGGKKIFGRAIASAKLA
With B1 as the protein, how does the “specific activity (hydration followed at 263 nm), 2 µM substrate, 311 nM enzyme” value read?
Its value is “no activity of the Rv0636 homodimer could be detected in the presence of octenoyl-ACP”.
